This assay deals with T1, recombinant human full length Fzd7 (human, UniProt O75084 33-574).
T1 construct: Frizzled 7 (Fzd7), human, recombinant full length; also called full-length recombinant Fzd7; source: recombinant
The experiment in a line: co-IP; recombinant human full length Fzd7 mixed in lysis buffer at 1:1 ratio with recombinant human full-length ILK, incubated overnight at 4 °C with anti-Fzd7 Ab; Western blot for ILK and Fzd7. Particulars: both partners purified.

B1: recombinant human full-length ILK (enzyme, UniProt Q13418 1-452, looked up)
chain: MDDIFTQCREGNAVAVRLWLDNTENDLNQGDDHGFSPLHWACREGRSAVVEMLIMRGARINVMNRGDDTPLHLAASHGHRDIVQKLLQYKADINAVNEHGNVPLHYACFWGQDQVAEDLVANGALVSICNKYGEMPVDKAKAPLRELLRERAEKMGQNLNRIPYKDTFWKGTTRTRPRNGTLNKHSGIDFKQLNFLTKLNENHSGELWKGRWQGNDIVVKVLKVRDWSTRKSRDFNEECPRLRIFSHPNVLPVLGACQSPPAPHPTLITHWMPYGSLYNVLHEGTNFVVDQSQAVKFALDMARGMAFLHTLEPLIPRHALNSRSVMIDEDMTARISMADVKFSFQCPGRMYAPAWVAPEALQKKPEDTNRRSADMWSFAVLLWELVTREVPFADLSNMEIGMKVALEGLRPTIPPGISPHVCKLMKICMNEDPAKRPKFDMIVPILEKMQDK
notes: Integrin-linked kinase (ILK), human, recombinant full length; also called full-length recombinant ILK; source: recombinant
As for B1, the binding result is “binds”.

The values are drawn from article PMC11143768, “Integrin-linked kinase-frizzled 7 interaction maintains cancer stem cells to drive platinum resistance in ovarian cancer” (Journal of Experimental & Clinical Cancer Research : CR, 2024).
